The supplement of paper PMC7877785
± gives the uncertainty stated by the source.

Experiment: self-splicing fitness, log relative to wild type (ln ratio); higher = more splicing; Tetrahymena group I intron in knt gene, E. coli kanamycin selection, DiMSum; sequences stand for … in CUCUCU…GGAGGGAAAAGUUAUCAGGCAUGCACCUGGUAGCUAGUCUUUAAACCAAUAGAUUGCAUCGGUUUAAAAGGCAAGACCGUCAAAUUGCGGGAAAGGGGUCAACAGCCGUUCAGUACCAAGUCUCAGGGGAAACUUUGAGAUGGCCUUGCAAAGGGUAUGGUAAUAAGCUGACGGACAUGGUCCUAACCACGCAGCCAAGUCCUAAGUCAACAGAUCUUCUGUUGAUAUGGAUGCAGUUCACAGACUAAAUGUCGGUCGGGGAAGAUGUAUUCUUCUCAUAAGAUAUAGUCGGACCUCUCCUUAAUGGGAGCUAGCGGAUGAAGUGAUGCAACACUGGAGCCGCUGGGAACUAAUUUGUAUGCGAAAGUAUAUUGAUUAGUUUUGGAGUACUCGUGGUCG
Outline: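 Colonies from six replicate transformations of E. coli BL21(DE3) were pooled and amplicon-sequenced on an Illumina HiSeq 2500. The library placed an intron with all eight P1ex-region nucleotides randomised inside the knt kanamycin-resistance gene on pET-22b(+), and cells grew overnight at 37°C or 30°C on LB agar with or without 25 μg/mL kanamycin (plus 100 μg/mL carbenicillin, 50 μM IPTG, 0.2% rhamnose). Fitness is the DiMSum error-weighted combination of wild-type-normalised replicate fold changes, kanamycin versus none.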

Row | Sequence | self-splicing fitness (ln) (30 °C) | self-splicing fitness (ln) (37 °C)
1 | GUAGAGCAAUAUUACGUUAC | -2.63 ± 0.18 | -0.785 ± 0.14
2 | GUAGAGCAAUAUUACGUUCC | -1.77 ± 0.14 | -0.881 ± 0.18
3 | GUAGAGCAAUAUUACGUUUU | -2.47 ± 0.16 | -1.36 ± 0.18
4 | GUAUAGCAAUAUUACGACCG | -2.97 ± 0.35 | -0.999 ± 0.26
5 | GUAUAGCAAUAUUACGACGG | -4.18 ± 0.37 | -2.33 ± 0.35
6 | GUAUAGCAAUAUUACGAGCU | -2.42 ± 0.27 | -1.61 ± 0.3
7 | GUAUAGCAAUAUUACGAUAU | -2.87 ± 0.32 | -0.832 ± 0.36
8 | GUAUAGCAAUAUUACGAUCC | -0.716 ± 0.18 | 1.03 ± 0.22
9 | GUAUAGCAAUAUUACGAUUA | -1.14 ± 0.16 | -1.4 ± 0.15
10 | GUAUAGCAAUAUUACGCAAG | -3.76 ± 0.4 | -1.64 ± 0.25
11 | GUAUAGCAAUAUUACGCAUA | -2.3 ± 0.28 | -0.525 ± 0.27
12 | GUAUAGCAAUAUUACGCCUC | -1.32 ± 0.21 | -0.746 ± 0.27
13 | GUAUAGCAAUAUUACGCGUA | -2.69 ± 0.29 | -1.41 ± 0.22
14 | GUAUAGCAAUAUUACGCUAG | -2.46 ± 0.43 | -0.609 ± 0.3
15 | GUAUAGCAAUAUUACGCUUG | -1.72 ± 0.16 | -1.41 ± 0.26
16 | GUAUAGCAAUAUUACGCUUU | -3.51 ± 0.24 | -2.28 ± 0.17
17 | GUAUAGCAAUAUUACGGAAU | -2.27 ± 0.23 | -2.39 ± 0.21
18 | GUAUAGCAAUAUUACGGAUC | -0.654 ± 0.14 | -0.016 ± 0.17
19 | GUAUAGCAAUAUUACGGCUA | -0.758 ± 0.13 | -0.383 ± 0.11
20 | GUAUAGCAAUAUUACGGGAC | -2.88 ± 0.34 | -1.07 ± 0.2
21 | GUAUAGCAAUAUUACGGGUC | -1.89 ± 0.2 | -1.62 ± 0.39
22 | GUAUAGCAAUAUUACGGUGG | -2.54 ± 0.1 | -2.63 ± 0.17
23 | GUAUAGCAAUAUUACGUAAA | -2.75 ± 0.31 | -1.66 ± 0.31
24 | GUAUAGCAAUAUUACGUAUU | -4.14 ± 0.37 | -1.44 ± 0.2
25 | GUAUAGCAAUAUUACGUCUU | -1.64 ± 0.14 | 0.0317 ± 0.13
26 | GUAUAGCAAUAUUACGUGCA | -0.903 ± 0.19 | -0.516 ± 0.18
27 | GUAUAGCAAUAUUACGUGGG | -3.28 ± 0.16 | -1.88 ± 0.14

Row | Sequence | self-splicing fitness (ln) (30 °C) | self-splicing fitness (ln) (37 °C)
28 | GUCAAGCAAUAUUACGAAAC | -1.37 ± 0.27 | 0.108 ± 0.3
29 | GUCAAGCAAUAUUACGAAGA | -3.88 ± 0.28 | –
30 | GUCAAGCAAUAUUACGACUG | -4.59 ± 0.27 | -4.75 ± 0.45
31 | GUCAAGCAAUAUUACGAGAU | -5.3 ± 0.38 | -3.28 ± 0.2
32 | GUCAAGCAAUAUUACGAGCC | -4.32 ± 0.25 | -2.26 ± 0.26
33 | GUCAAGCAAUAUUACGAUCU | -2.31 ± 0.067 | -1.04 ± 0.068
34 | GUCAAGCAAUAUUACGAUUG | – | -3.59 ± 0.34
35 | GUCAAGCAAUAUUACGCAAU | -2 ± 0.061 | -1.32 ± 0.076
36 | GUCAAGCAAUAUUACGCACA | -1.21 ± 0.12 | -0.776 ± 0.13
37 | GUCAAGCAAUAUUACGCCGA | -3.33 ± 0.45 | -1.08 ± 0.18
38 | GUCAAGCAAUAUUACGCGGU | -3.16 ± 0.39 | -1.82 ± 0.31
39 | GUCAAGCAAUAUUACGGAUG | -2.64 ± 0.12 | -0.795 ± 0.11
40 | GUCAAGCAAUAUUACGGGGC | -5.02 ± 0.45 | -3.14 ± 0.27
41 | GUCAAGCAAUAUUACGGUAA | -1.28 ± 0.18 | -0.000783 ± 0.17
42 | GUCAAGCAAUAUUACGGUGC | -2.35 ± 0.12 | -1.72 ± 0.18
43 | GUCAAGCAAUAUUACGUAGA | -2.04 ± 0.1 | -1.17 ± 0.12
44 | GUCAAGCAAUAUUACGUAGC | -1.55 ± 0.12 | -1.07 ± 0.15
45 | GUCAAGCAAUAUUACGUCGC | -3.74 ± 0.21 | -2.13 ± 0.19
46 | GUCAAGCAAUAUUACGUCGG | – | -1.88 ± 0.18
47 | GUCAAGCAAUAUUACGUGGA | -2.86 ± 0.17 | -1.58 ± 0.12
48 | GUCAAGCAAUAUUACGUGUA | -1.8 ± 0.062 | -0.887 ± 0.072
49 | GUCAAGCAAUAUUACGUUUA | -1.92 ± 0.096 | -0.845 ± 0.091
50 | GUCAAGCAAUAUUACGUUUG | – | -3.38 ± 0.2
51 | GUCCAGCAAUAUUACGAACA | -1.83 ± 0.15 | -0.801 ± 0.12
52 | GUCCAGCAAUAUUACGAAGC | -0.345 ± 0.072 | -0.167 ± 0.085
53 | GUCCAGCAAUAUUACGAAGG | -1.34 ± 0.24 | -1.66 ± 0.28
54 | GUCCAGCAAUAUUACGAAUG | -2.65 ± 0.17 | -1.31 ± 0.15

Row | Sequence | self-splicing fitness (ln) (30 °C) | self-splicing fitness (ln) (37 °C)
55 | GUCCAGCAAUAUUACGACCC | -0.218 ± 0.18 | 0.168 ± 0.21
56 | GUCCAGCAAUAUUACGAUUU | -0.323 ± 0.064 | 0.653 ± 0.067
57 | GUCCAGCAAUAUUACGCACG | -2.07 ± 0.21 | -0.825 ± 0.13
58 | GUCCAGCAAUAUUACGCGCA | -0.0872 ± 0.1 | 0.23 ± 0.11
59 | GUCCAGCAAUAUUACGCGGA | -3.96 ± 0.25 | -4.4 ± 0.46
60 | GUCCAGCAAUAUUACGGCCA | -0.678 ± 0.13 | -0.279 ± 0.14
61 | GUCCAGCAAUAUUACGGUUU | -0.181 ± 0.052 | 0.389 ± 0.064
62 | GUCCAGCAAUAUUACGUAAA | -0.484 ± 0.081 | 0.338 ± 0.12
63 | GUCCAGCAAUAUUACGUAGA | -0.646 ± 0.064 | -0.201 ± 0.086
64 | GUCCAGCAAUAUUACGUAGC | -0.399 ± 0.062 | -0.149 ± 0.075
65 | GUCCAGCAAUAUUACGUCAA | -1.23 ± 0.12 | -1.99 ± 0.14
66 | GUCGAGCAAUAUUACGAGCA | -1.76 ± 0.3 | –
67 | GUCGAGCAAUAUUACGAUGG | -3.01 ± 0.28 | -1.85 ± 0.18
68 | GUCGAGCAAUAUUACGCAUC | -2.31 ± 0.26 | -0.574 ± 0.22
69 | GUCGAGCAAUAUUACGCCAG | – | -2 ± 0.43
70 | GUCGAGCAAUAUUACGCCCG | -2.96 ± 0.48 | -2.03 ± 0.4
71 | GUCGAGCAAUAUUACGCUCU | -1.61 ± 0.24 | -1.39 ± 0.23
72 | GUCGAGCAAUAUUACGCUGC | – | -1.97 ± 0.48
73 | GUCGAGCAAUAUUACGGAAG | -3.26 ± 0.26 | -2.35 ± 0.28
74 | GUCGAGCAAUAUUACGGCCA | -1.28 ± 0.36 | -0.721 ± 0.27
75 | GUCGAGCAAUAUUACGGCGG | – | -2.67 ± 0.41
76 | GUCGAGCAAUAUUACGGCUG | -2.54 ± 0.25 | -1.7 ± 0.39
77 | GUCGAGCAAUAUUACGGUGA | -2.64 ± 0.15 | -1.91 ± 0.2
78 | GUCGAGCAAUAUUACGUGCC | -2.63 ± 0.29 | –
79 | GUCGAGCAAUAUUACGUGGC | -3.63 ± 0.2 | -1.09 ± 0.17
